Experimental data reported in the RNAGym collection of RNA variant scans (doi:10.7554/elife.80360).

B1: HDV Ribozyme (parent)
chain: GGCCGGCAUGGUCCCAGCCUCCUCGCUGGCGCCGGCUGGGCAACAUUCCGAGGGGACCGUCCCCUCGGUAAUGGCGAAUGGGACCCA

Variants of: B1
Experiment: self-cleavage, relative activity (ratio to wild type); higher = more cleavage; co-transcriptional

Variant	self-cleavage
GGCCGGCAUGGUCCCAGCCUAAUCGCUGGCGCCGGCUGGGCAACAUUCCGAGGGGACCGUCCCCUCGGUAAUGGCGAAUGGGACCCA	0.0898
GGCCGGCAUGGUCCCAGCCUAGUCGCUGGCGCCGGCUGGGCAACAUUCCGAGGGGACCGUCCCCUCGGUAAUGGCGAAUGGGACCCA	0.108
GGCCGGCAUGGUCCCAGCCUACUCGCUGGCGCCGGCUGGGCAACAUUCCGAGGGGACCGUCCCCUCGGUAAUGGCGGAUGGGACCCA	0.0678
GGCCGGCAUGGUCCCAGCCUACUCGCUGGCGCCGGCUGGGCAACAUUCCGAGGGGACCGUCCCCUCGGUAAUGGCGAAUGGGAACCA	0
GGCCGGCAUGGUCCCAGCCUACUCGCUGUCGCCGGCUGGGCAACAUUCCGAGGGGACCGUCCCCUCGGUAAUGGCGAAUGGGACCCA	0
GGCCGGCAUGGUCCCAGCCUACUCGCUGGCGCCGGCUGGGCCACAUUCCGAGGGGACCGUCCCCUCGGUAAUGGCGAAUGGGACCCA	0.0437
GGCCGGCAUGGUCCCAGCCUACUCGCUGGCGCCGGCUGCGCAACAUUCCGAGGGGACCGUCCCCUCGGUAAUGGCGAAUGGGACCCA	0.113
GGCCGGCAUGGUCCCAGCCUACUCGCUGGCGCCGGCUGAGCAACAUUCCGAGGGGACCGUCCCCUCGGUAAUGGCGAAUGGGACCCA	0.0277
GGCCGGCAUGGUCCCAGCCUACUCGCUGGCGUCGGCUGGGCAACAUUCCGAGGGGACCGUCCCCUCGGUAAUGGCGAAUGGGACCCA	0.0978
GGCCGGCAUGGUCCCAGCCUACUCGCUGGCGACGGCUGGGCAACAUUCCGAGGGGACCGUCCCCUCGGUAAUGGCGAAUGGGACCCA	0.17
GGCCGGCAUGGUCCCAGCCUACUCGCUGGCGCCGGCUGGGCAACAUUCCGAGGGGACCGUCCCCUCGGUAAUGGCGAAUGGGGCCCA	0.0519
GGCCGGCAUGGUCCCAGCCUACUCGCUGGCGCCGGCUGGGCAACAUUCCGAGGGGACCGUCCCCUCGGUAAUGGCGAAUGGGCCCCA	0.0378
GGCCGGCAUGGUCCCAGCCUACUCGCUGGCGCCGGCUGGGCAACAUUCCGAGGGGAGCGUCCCCUCGGUAAUGGCGAAUGGGACCCA	0.0811
GGCCGGCAUGGUCCCAGCCUACUCGCUGGCGCCGGCUGGGCAACAUUCCGAGGGGAUCGUCCCCUCGGUAAUGGCGAAUGGGACCCA	0.192
GGCCGGCAUGGUCCCAGCCUACUCGCUGGCGCCGGCUGGGCAACAUUCGGAGGGGACCGUCCCCUCGGUAAUGGCGAAUGGGACCCA	0.102
GGCCGGCAUGGUCCCAGCCUACUCGCUGGCGCCGGCUGGGCAACAUUCCGAGGGGACCGUCCCCUCGGUAAUGGAGAAUGGGACCCA	0
GGCCGGCAUGGUCCCAGCCUACUCGCUGGCGCCGGCUGGGCAACAUUCCGAGGGGACCGUCCACUCGGUAAUGGCGAAUGGGACCCA	0.0314
GGCCGGCAUGGUCCCAGCCUACUCGCUGGCGCCGGCUGGGCAACAUUCCGAGGGGACCGUCCUCUCGGUAAUGGCGAAUGGGACCCA	0.0462
GGCCGGCAUGGUCCCAGCCUACUCGCUCGCGCCGGCUGGGCAACAUUCCGAGGGGACCGUCCCCUCGGUAAUGGCGAAUGGGACCCA	0
GGCCGGCAUGGUCCCAGCCUACUCGCUGGCGCCGGCUGGGCAACAUUCCGAGGGGACCGUCCCCUGGGUAAUGGCGAAUGGGACCCA	0
GGCCGGCAUGGUCCCAGCCUACUCGCUGGCGCCGGCUGGGCAACAUUCCGAGGGGACAGUCCCCUCGGUAAUGGCGAAUGGGACCCA	0.104
GGCCGGCAUGGUCCCAGCCUACUCGCUGGCGCCGGCUGGGCAACAUUCCGAGGGGACUGUCCCCUCGGUAAUGGCGAAUGGGACCCA	0.0627

Variant	self-cleavage
GGCCGGCAUGGUCCCAGCCUACUCGCUGGCGCCGGCUUGGCAACAUUCCGAGGGGACCGUCCCCUCGGUAAUGGCGAAUGGGACCCA	0.0665
GGCCGGCAUGGUCCCAGCCUACUCGCUGGCGCCGGCUGGUCAACAUUCCGAGGGGACCGUCCCCUCGGUAAUGGCGAAUGGGACCCA	0.134
GGCCGGCAUGGUCCCAGCCUACUCGCUGGCGCCGGCUGGGCAACAUUCCGAGGGGACCGUCGCCUCGGUAAUGGCGAAUGGGACCCA	0.138
GGCCGGCAUGGUCCCAGCCUACUCGCUGGCGCCGGCUGGGCAACAUUCCGAGGGGACCGUCUCCUCGGUAAUGGCGAAUGGGACCCA	0.0519
GGCCGGCAUGGUCCCAGCCUACUCGCUGGCGCCGGCUGGGCAACAUUCCGAGGGGACCGUACCCUCGGUAAUGGCGAAUGGGACCCA	0.0511
GGCCGGCAUGGUCCCAGCCUACUCGCUGGCGCCGGCUGGGCAACAUUCCGAGGGGACCGUUCCCUCGGUAAUGGCGAAUGGGACCCA	0.0963
GGCCGGCAUGGUCCCAGCCUACUCGCUGGCCCCGGCUGGGCAACAUUCCGAGGGGACCGUCCCCUCGGUAAUGGCGAAUGGGACCCA	0.0817
GGCCGGCAUGGUCCCAGCCUACUCGCUGGCUCCGGCUGGGCAACAUUCCGAGGGGACCGUCCCCUCGGUAAUGGCGAAUGGGACCCA	0.142
GGCCGGCAUGGUCCCAGCCUACUCGCUGGCGCCGGCUGGGCAACAUUCCAAGGGGACCGUCCCCUCGGUAAUGGCGAAUGGGACCCA	0.111
GGCCGGCAUGGUCCCAGCCUACUCGCUGGCGCCGGCUGGGCAACAUUCCGAGGGGACCGUCCCCUCGGUAAUGGCGAAUGGGACCCA	0.0856
GGCCGGCAUGGUCCCAGCCUACUCGCUGGCGCCGGCUGGGCAAGAUUCCGAGGGGACCGUCCCCUCGGUAAUGGCGAAUGGGACCCA	0.0852
GGCCGGCAUGGUCCCAGCCUACUCGCUGGCGCCGGCUGGGCAAAAUUCCGAGGGGACCGUCCCCUCGGUAAUGGCGAAUGGGACCCA	0.0604
GGCCGGCAUGGUCCCAGCCUACUCGCUGGCGCCGGCUGGGCAACAUUCCGAGGGGACCGUCCCCUCGGUAUUGGCGAAUGGGACCCA	0.106
GGCCGGCAUGGUCCCAGCCUACUCGCUGGCGCCGGCUGGGCAACAUUCCGAGGGGACCGUCCCCUCGGUAGUGGCGAAUGGGACCCA	0.0573
GGCCGGCAUGGUCCCAGCCUACUCGCUGGCGCCGGCUGGGCAACAUUCCGAGGGGACCGUCCCCUCGGUAAUGGCGAAUGGGACCCC	0.0742
GGCCGGCAUGGUCCCAGCCUACUCGCUGGCGCCGGCUGGGCAACUUUCCGAGGGGACCGUCCCCUCGGUAAUGGCGAAUGGGACCCA	0.0923
GGCCGGCAUGGUCCCAGCCUACUCGCUGGCGCCGGCUGGGCAACAUUCCGAGGGGGCCGUCCCCUCGGUAAUGGCGAAUGGGACCCA	0.109
GGCCGGCAUGGUCCCAGCCUACUCGCUGGCGCCGGCUGGGCAACAUUCCGAGGGGCCCGUCCCCUCGGUAAUGGCGAAUGGGACCCA	0.0898
GGCCGGCAUGGUCCCAGCCUACUCGCUGGAGCCGGCUGGGCAACAUUCCGAGGGGACCGUCCCCUCGGUAAUGGCGAAUGGGACCCA	0.0373
GGCCGGCAUGGUCCCAGCCUACUCGCUGGGGCCGGCUGGGCAACAUUCCGAGGGGACCGUCCCCUCGGUAAUGGCGAAUGGGACCCA	0.0652
GGCCGGCAUGGUCCCAGCCUACUCGCUGGUGCCGGCUGGGCAACAUUCCGAGGGGACCGUCCCCUCGGUAAUGGCGAAUGGGACCCA	0.0519
GGCCGGCAUGGUCCCAGCCUACUCGCUGGCGCCGGCUGGGCAACAUUCCGCGGGGACCGUCCCCUCGGUAAUGGCGAAUGGGACCCA	0.175

Variant	self-cleavage
GGCCGGCAUGGUCCCAGCCUACUCGCUGGCGCCGGCUGGGCAACAUUCCGUGGGGACCGUCCCCUCGGUAAUGGCGAAUGGGACCCA	0.0369
GGCCGGCAUGGUCCCAGCCUACUCGCUGGCGCCGGCUGGGCAACAUUCCGGGGGGACCGUCCCCUCGGUAAUGGCGAAUGGGACCCA	0.0326
GGCCGGCAUGGUCCCAGCCUACUCGCUGGCGCCGACUGGGCAACAUUCCGAGGGGACCGUCCCCUCGGUAAUGGCGAAUGGGACCCA	0.0804
GGCCGGCAUGGUCCCAGCCUACUCGCUGGCGCCGCCUGGGCAACAUUCCGAGGGGACCGUCCCCUCGGUAAUGGCGAAUGGGACCCA	0.177
GGCCGGCAUGGUCCCAGCCUACUCGCUGGCGCCGGCUGGGCAACAUUUCGAGGGGACCGUCCCCUCGGUAAUGGCGAAUGGGACCCA	0.0639
GGCCGGCAUGGUCCCAGCCUACUCGCUGGCGCCAGCUGGGCAACAUUCCGAGGGGACCGUCCCCUCGGUAAUGGCGAAUGGGACCCA	0.119
GGCCGGCAUGGUCCCAGCCUACUCGCUGGCGCCGGCUGGGCAACAUUCCGAGGGGACCGUCCCGUCGGUAAUGGCGAAUGGGACCCA	0.0604
GGCCGGCAUGGUCCCAGCCUACUCGCUGGCGCCGGCUGGGCAACAUUCCGAGGGGACCGUCCCAUCGGUAAUGGCGAAUGGGACCCA	0.0692
GGCCGGCAUGGUCCCAGCCUACUCGCUGGCGCCGGCUGGGCAACAUUCCGAGGGGACCGUCCCUUCGGUAAUGGCGAAUGGGACCCA	0.0852
GGCCGGCAUGGUCCCAGCCUACUCGCUGGCGCCGGCUGGGCAACAUUCCGAGGGGACCGUCCCCUCGGUAAUGGCGAAUGGGACCUA	0.0308
GGCCGGCAUGGUCCCAGCCUACUCGCUGGCGCCGGCUGGGCAACAUUCCGAGGGGACCGUCCCCUCGGUAAUGGCGAAUGGGACCAA	0.0563
GGCCGGCAUGGUCCCAGCCUACUCGCUGGCGCCGGCUGGGCAACAUUCCGAGGGGACCGUCCCCUCGGUAAUGGCGAAUGGGACCGA	0.111
GGCCGGCAUGGUCCCAGCCUACUCGGUGGCGCCGGCUGGGCAACAUUCCGAGGGGACCGUCCCCUCGGUAAUGGCGAAUGGGACCCA	0.266
GGCCGGCAUGGUCCCAGCCUACUCGAUGGCGCCGGCUGGGCAACAUUCCGAGGGGACCGUCCCCUCGGUAAUGGCGAAUGGGACCCA	0.0739
GGCCGGCAUGGUCCCAGCCUACUCGCUGGCGCCGGCUGGGCAACAUUCCGAGGGGACCGUCCCCUCGGUUAUGGCGAAUGGGACCCA	0
GGCCGGCAUGGUCCCAGCCUACUCGCUGGCGCCGGCUGGGCAGCAUUCCGAGGGGACCGUCCCCUCGGUAAUGGCGAAUGGGACCCA	0.132
GGCCGGCAUGGUCCCAGCCUACUCGCUGGCGCCGGCUGGGCACCAUUCCGAGGGGACCGUCCCCUCGGUAAUGGCGAAUGGGACCCA	0.116
GGCCGGCAUGGUCCCAGCCUACUUGCUGGCGCCGGCUGGGCAACAUUCCGAGGGGACCGUCCCCUCGGUAAUGGCGAAUGGGACCCA	0.0739
GGCCGGCAUGGUCCCAGCCUACUAGCUGGCGCCGGCUGGGCAACAUUCCGAGGGGACCGUCCCCUCGGUAAUGGCGAAUGGGACCCA	0
GGCCGGCAUGGUCCCAGCCUACUGGCUGGCGCCGGCUGGGCAACAUUCCGAGGGGACCGUCCCCUCGGUAAUGGCGAAUGGGACCCA	0
